# Measured values as given in PMC5648754, “CryoEM structure of Saccharomyces cerevisiae U1 snRNP offers insight into alternative splicing” (Nature Communications, 2017).
# T1: yeast U1-70K (S. cerevisiae, UniProt Q00916 1-300)
# T1 construct: U1-70K of S. cerevisiae U1 snRNP; residues 3-91 built, 94-188 (RRM) docked as homology model; source: endogenous, S. cerevisiae; co-purified in U1 snRNP through the TAP tag on U1A
# T1 sequence (looked up): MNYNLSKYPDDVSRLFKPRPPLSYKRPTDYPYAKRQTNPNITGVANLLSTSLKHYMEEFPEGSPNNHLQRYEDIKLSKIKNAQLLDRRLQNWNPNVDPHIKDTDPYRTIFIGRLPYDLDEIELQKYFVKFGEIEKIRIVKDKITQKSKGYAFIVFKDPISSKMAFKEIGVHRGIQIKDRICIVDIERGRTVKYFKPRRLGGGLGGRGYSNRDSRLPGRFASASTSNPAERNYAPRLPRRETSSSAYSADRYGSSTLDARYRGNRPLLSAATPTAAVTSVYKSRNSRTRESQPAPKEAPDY
# T2: yeast Prp39 (S. cerevisiae, UniProt P39682 1-629)
# T2 construct: Prp39 of S. cerevisiae, 629 residues; C-terminal TPR domain 326-552 and C-terminal region 561-627 built, 43-285 docked as homology model; source: endogenous, S. cerevisiae; co-purified in U1 snRNP through the TAP tag on U1A
# T2 sequence (looked up): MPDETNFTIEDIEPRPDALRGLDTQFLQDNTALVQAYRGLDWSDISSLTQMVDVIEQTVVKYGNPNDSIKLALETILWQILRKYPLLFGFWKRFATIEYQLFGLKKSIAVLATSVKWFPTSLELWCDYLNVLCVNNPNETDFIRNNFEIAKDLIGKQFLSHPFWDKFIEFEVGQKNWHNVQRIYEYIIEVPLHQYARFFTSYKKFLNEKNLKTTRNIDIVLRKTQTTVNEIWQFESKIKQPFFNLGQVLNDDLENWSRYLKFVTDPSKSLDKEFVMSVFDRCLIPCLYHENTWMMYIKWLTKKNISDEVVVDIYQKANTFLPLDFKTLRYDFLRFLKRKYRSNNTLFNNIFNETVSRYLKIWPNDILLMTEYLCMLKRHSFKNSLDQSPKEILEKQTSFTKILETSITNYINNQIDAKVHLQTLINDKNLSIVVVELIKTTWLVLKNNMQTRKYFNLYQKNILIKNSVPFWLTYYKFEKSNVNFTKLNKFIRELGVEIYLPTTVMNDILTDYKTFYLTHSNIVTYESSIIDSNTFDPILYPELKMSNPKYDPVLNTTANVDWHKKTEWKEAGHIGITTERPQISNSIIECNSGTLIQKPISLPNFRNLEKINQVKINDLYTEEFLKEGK
# T3: yeast Snu71 (S. cerevisiae, UniProt P53207 1-620)
# T3 construct: Snu71 of S. cerevisiae U1 snRNP; not modelled in the structure; source: endogenous, S. cerevisiae; co-purified in U1 snRNP through the TAP tag on U1A
# T3 sequence (looked up): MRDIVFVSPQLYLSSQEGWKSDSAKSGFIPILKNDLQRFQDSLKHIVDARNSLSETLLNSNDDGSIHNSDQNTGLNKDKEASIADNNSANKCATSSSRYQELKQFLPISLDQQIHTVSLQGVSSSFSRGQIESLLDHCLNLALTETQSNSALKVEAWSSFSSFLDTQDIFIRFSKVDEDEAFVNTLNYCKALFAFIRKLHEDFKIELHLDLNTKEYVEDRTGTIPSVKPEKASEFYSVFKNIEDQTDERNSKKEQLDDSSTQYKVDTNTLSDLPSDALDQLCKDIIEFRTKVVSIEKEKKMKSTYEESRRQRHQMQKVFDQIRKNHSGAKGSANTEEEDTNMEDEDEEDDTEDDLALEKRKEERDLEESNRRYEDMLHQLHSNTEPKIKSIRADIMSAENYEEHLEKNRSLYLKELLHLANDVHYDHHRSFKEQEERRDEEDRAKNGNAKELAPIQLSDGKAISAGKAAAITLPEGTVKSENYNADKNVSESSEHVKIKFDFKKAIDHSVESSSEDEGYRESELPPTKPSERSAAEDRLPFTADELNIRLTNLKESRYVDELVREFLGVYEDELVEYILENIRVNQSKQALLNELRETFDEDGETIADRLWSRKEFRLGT
# B1: yeast Prp42 (natural protein, S. cerevisiae, UniProt Q03776 1-544, looked up)
# chain: MDKYTALIHDENFSTLTLNVSRYPKSLAYWEKLLNYIVKASAPICKSTEPQLLKLIRCTYSSMLNEFPYLENYYIDFALLEYKLGNVSMSHKIFQRGLQAFNQRSLLLWTSYLKFCNNVISHQKQLFKKYETAEEYVGLHFFSGEFWDLYLEQISSRCTSSKKYWNVLRKILEIPLHSFSKFYALWLQRIDDIMDLKQLSQLTSKDELLKKLKIDINYSGRKGPYLQDAKKKLKKITKEMYMVVQYQVLEIYSIFESKIYINYYTSPETLVSSDEIETWIKYLDYTITLQTDSLTHLNFQRALLPLAHYDLVWIKYSKWLINSKNDLLGAKNVLLMGLKFSLKKTEIIKLLYSVICKLNEYVLLRNLLEKIESSYSDNVENVDDFEIFWDYLQFKTFCQNSLYSSRYSDSQSNGLLNKELFDKVWKRLSCKEKKSGQEILLNNLVQFYSKDTVEFVEKNIFQKIIEFGWEYYLQNGMFWNCYCRLIYFDTSRSYLDKRQYIVRKIWPQIDKKFAQSVLPSLTEFCESYFPEEMDTLEEMFTEEP
# notes: Prp42 of S. cerevisiae, 544 residues; residues 2-540 modelled; source: endogenous, S. cerevisiae; co-purified in U1 snRNP through the TAP tag on U1A
# B2: yeast Nam8 (natural protein, S. cerevisiae, UniProt Q00539 1-523, looked up)
# chain: MSYKQTTYYPSRGNLVRNDSSPYTNTISSETNNSSTSVLSLQGASNVSLGTTGNQLYMGDLDPTWDKNTVRQIWASLGEANINVRMMWNNTLNNGSRSSMGPKNNQGYCFVDFPSSTHAANALLKNGMLIPNFPNKKLKLNWATSSYSNSNNSLNNVKSGNNCSIFVGDLAPNVTESQLFELFINRYASTSHAKIVHDQVTGMSKGYGFVKFTNSDEQQLALSEMQGVFLNGRAIKVGPTSGQQQHVSGNNDYNRSSSSLNNENVDSRFLSKGQSFLSNGNNNMGFKRNHMSQFIYPVQQQPSLNHFTDPNNTTVFIGGLSSLVTEDELRAYFQPFGTIVYVKIPVGKCCGFVQYVDRLSAEAAIAGMQGFPIANSRVRLSWGRSAKQTALLQQAMLSNSLQVQQQQPGLQQPNYGYIPSSTCEAPVLPDNNVSSTMLPGCQILNYSNPYANANGLGSNNFSFYSNNNATNTQATSLLADTSSMDLSGTGGQQVIMQGSEAVVNSTNAMLNRLEQGSNGFMFA
# notes: Nam8 of S. cerevisiae, 523 residues; inter-RRM linker 289-302 and RRM3 303-383 and C-terminal tail modelled; source: endogenous, S. cerevisiae; co-purified in U1 snRNP through the TAP tag on U1A
# Experiments:
# Settings in all cases: both partners purified
# yeast U1-70K = target: T1, yeast U1-70K; test: cryo-EM structure; natively purified yeast U1 snRNP, 3.6 Å overall resolution
# yeast Prp42 = target: B1; test: as above
# yeast Nam8 = target: B2; test: as above
# yeast Prp39 = target: T2, yeast Prp39; test: as above
# yeast Snu71 = target: T3, yeast Snu71; test: cross-linking; purified yeast U1 snRNP cross-linked with 100 uM BS3, 30 min, room temperature; trypsin digest, mass spectrometry
Binder,binding result (yeast U1-70K),binding result (yeast Prp42),binding result (yeast Nam8),binding result (yeast Prp39),binding result (yeast Snu71)
"yeast U1C (natural protein, S. cerevisiae, UniProt Q05900 1-231, looked up, U1C of S. cerevisiae U1 snRNP, 231 residues; NTD residues 1-48; residues 3-47 and 48-195 modelled; also called Yhc1; source: endogenous, S. cerevisiae; co-purified in U1 snRNP through the TAP tag on U1A) MTRYYCEYCHSYLTHDTLSVRKSHLVGKNHLRITADYYRNKARDIINKHNHKRRHIGKRGRKERENSSQNETLKVTCLSNKEKRHIMHVKKMNQKELAQTSIDTLKLLYDGSPGYSKVFVDANRFDIGDLVKASKLPQRANEKSAHHSFKQTSRSRDETCESNPFPRLNNPKKLEPPKILSQWSNTIPKTSIFYSVDILQTTIKESKKRMHSDGIRKPSSANGYKRRRYGN",binds,binds,binds,,
B1,,,,binds,binds
B2,,binds,,binds,
"yeast Snu56 (natural protein, S. cerevisiae, UniProt Q03782 1-492, looked up, Snu56 of S. cerevisiae, 492 residues; N-terminal domain 47-254 and long helix 255-303 modelled; source: endogenous, S. cerevisiae; co-purified in U1 snRNP through the TAP tag on U1A) MRPRRRGLAYHHTKPKGQLSQGHYPTTSNDGQRRKVGNSEAFQSFDIWKNLDRIRSTKKNAGQFIKGSLLILPMRTEDKQQFDECMDELHKYISKDILRCYPQKEQKDEGMLFYIVLKDFNILDSCFVLSVLLAFQKRLWMAPSEKSYFRVPKNINLTGSFYLPKNIETGRGHIITSYRREQPSSSIVEVGFNVVPDFQQFQVKACHVSKFMNELSNFFSQVEFGKCEANVINYFKREYNRTYSQISLALYELPLIGDGLFDIKSYISKTRPIIETSKAQMIKHISEMKAYNEISGLQGDQFPRQQRPLSNSPSSNSISSSQTIEAGATSYQTQPQRHAVNKPSNVLNSSNRHSGPKTFEDGRYSEGNKPGFMTQDEIKQHCIGTIKASMDAVKKKSSYQILKTYVRCPRQNYIDIVYQNLNDLRSKTNCNIVVLNLNNLHESQMWLESLNTTNYTIFAQAPHPSTIRVISIGGVGEYIVKALELILNILEH",,binds,binds,,binds
"yeast SmG (natural protein, S. cerevisiae, UniProt P40204 1-77, looked up, SmG of S. cerevisiae, member of the Sm ring of U1 snRNP; source: endogenous, S. cerevisiae; co-purified in U1 snRNP through the TAP tag on U1A) MVSTPELKKYMDKKILLNINGSRKVAGILRGYDIFLNVVLDDAMEINGEDPANNHQLGLQTVIRGNSIISLEALDAI",,binds,,,
"yeast Prp40 (natural protein, S. cerevisiae, UniProt P33203 1-583, looked up, Prp40 of S. cerevisiae U1 snRNP; not modelled in the structure; source: endogenous, S. cerevisiae; co-purified in U1 snRNP through the TAP tag on U1A) MSIWKEAKDASGRIYYYNTLTKKSTWEKPKELISQEELLLRENGWKAAKTADGKVYYYNPTTRETSWTIPAFEKKVEPIAEQKHDTVSHAQVNGNRIALTAGEKQEPGRTINEEESQYANNSKLLNVRRRTKEEAEKEFITMLKENQVDSTWSFSRIISELGTRDPRYWMVDDDPLWKKEMFEKYLSNRSADQLLKEHNETSKFKEAFQKMLQNNSHIKYYTRWPTAKRLIADEPIYKHSVVNEKTKRQTFQDYIDTLIDTQKESKKKLKTQALKELREYLNGIITTSSSETFITWQQLLNHYVFDKSKRYMANRHFKVLTHEDVLNEYLKIVNTIENDLQNKLNELRLRNYTRDRIARDNFKSLLREVPIKIKANTRWSDIYPHIKSDPRFLHMLGRNGSSCLDLFLDFVDEQRMYIFAQRSIAQQTLIDQNFEWNDADSDEITKQNIEKVLENDRKFDKVDKEDISLIVDGLIKQRNEKIQQKLQNERRILEQKKHYFWLLLQRTYTKTGKPKPSTWDLASKELGESLEYKALGDEDNIRRQIFEDFKPESSAPTAESATANLTLTASKKRHLTPAVELDY",,,,,binds
